Tests used:
[1] = target: T1, GST-fusion protein containing the N-terminal domain of Dsh (Drosophila, UniProt P51140 1-166); experiment: GST-fusion pull-down from Drosophila embryo lysates, in vitro kinase assay
T1 construct: domain: N-terminal; not shown: glutathione-S-transferase (GST) fusion partner
T1 sequence (looked up): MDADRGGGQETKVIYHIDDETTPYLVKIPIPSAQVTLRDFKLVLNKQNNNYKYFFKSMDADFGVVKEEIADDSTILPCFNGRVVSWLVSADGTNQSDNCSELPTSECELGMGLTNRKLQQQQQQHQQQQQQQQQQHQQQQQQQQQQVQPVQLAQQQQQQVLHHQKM
Protocol: (§1) Dsh is known to be progressively phosphorylated in Drosophila during the stages of embryonic development known to require Wnt. The stoichiometry of this phosphorylation is high and supports the importance of this reaction. To identify the kinase that phosphorylates Dsh, various regions of Dsh were tested for their ability to physically interact with this kinase. Equal amounts of lysates prepared from staged Drosophila embryos were blotted with anti-Dsh antibody. Only the GST-fusion protein containing the middle (DM), but not the N-terminal or C-terminal domain of Dsh, interacted with this kinase activity from Drosophila embryos. The Dsh- associated kinase activity, which was precipitated with GST-DM, increased as Dsh became progressively phosphoylated during development.
(§2) To perform the kinase assay, the embryos or cells were lysed in lysis buffer (50 mM HEPES [pH 7.6], 100 mM NaCl, 0.5% Nonidet P-40, 10 mM NaF, 5 mM NaPPi, 1.5 mM MgCl₂, 1 mM EGTA, 10% glycerol, and protease inhibitors). Cleared cell lysates were incubated with GST fusion proteins immobilized on glutathione agarose beads for two to four hours at 4° C. The glutathione beads were washed three times with lysis buffer and once with kinase buffer (50 mM Tris [pH7.6], 10 mM MgCl₂). […]

[2] = target: T2, GST-fusion protein containing the C-terminal domain of Dsh (Drosophila, UniProt P51140 395-623); experiment: as above
T2 construct: domain: C-terminal; not shown: glutathione-S-transferase (GST) fusion partner
T2 sequence (looked up): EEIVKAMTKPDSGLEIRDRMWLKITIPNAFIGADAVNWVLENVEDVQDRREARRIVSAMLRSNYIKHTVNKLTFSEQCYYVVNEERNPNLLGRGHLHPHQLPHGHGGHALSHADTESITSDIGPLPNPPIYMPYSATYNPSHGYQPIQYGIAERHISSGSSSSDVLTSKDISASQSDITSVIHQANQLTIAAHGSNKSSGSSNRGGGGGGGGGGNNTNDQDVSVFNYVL
Protocol: as §1, §2

[3] = target: T3, Dishevelled (Dsh) protein, Drosophila (Drosophila, UniProt P51140 1-623, progressively phosphorylated during development (sites not given)); experiment: immunoprecipitation of Dsh from Drosophila embryos, in vitro kinase assay; the kinase was eluted with 700 mM NaCl
T3 construct: also called endogenous Dsh
T3 sequence (looked up): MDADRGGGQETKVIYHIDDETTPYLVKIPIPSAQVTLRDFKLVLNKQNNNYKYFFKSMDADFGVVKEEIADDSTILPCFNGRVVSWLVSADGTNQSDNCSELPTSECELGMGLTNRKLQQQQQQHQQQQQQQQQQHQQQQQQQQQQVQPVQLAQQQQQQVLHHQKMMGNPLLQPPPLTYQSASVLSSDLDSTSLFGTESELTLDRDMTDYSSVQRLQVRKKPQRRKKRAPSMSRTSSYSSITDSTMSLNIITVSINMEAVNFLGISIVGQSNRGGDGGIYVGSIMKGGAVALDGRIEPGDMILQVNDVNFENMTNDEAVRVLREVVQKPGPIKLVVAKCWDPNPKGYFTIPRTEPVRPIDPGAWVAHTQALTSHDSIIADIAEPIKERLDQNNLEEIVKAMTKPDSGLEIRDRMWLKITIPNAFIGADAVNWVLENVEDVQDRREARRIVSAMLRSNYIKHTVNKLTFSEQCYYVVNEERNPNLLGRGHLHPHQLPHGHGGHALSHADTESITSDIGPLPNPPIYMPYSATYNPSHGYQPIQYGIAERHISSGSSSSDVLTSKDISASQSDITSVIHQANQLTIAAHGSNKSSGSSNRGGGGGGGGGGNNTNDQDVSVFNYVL
Protocol: To clone the Dsh-associated kinase, Dsh was immunoprecipitated from Drosophila embryos with preimmune and affinity-purified immune serum, and subjected to an in vitro kinase assay or blotted with anti-Dsh serum. Dsh immunoprecipitates were washed with 700 mM NaCl to elute the associated kinase. The eluted kinase was recovered after dilution by precipitation with GST-fusion proteins. The kinase was purified 60,000-fold from Drosophila embryos and several peptide sequences were then used to clone the cDNA of this kinase. After screening a Drosophila embryo cDNA library with oligo probes designed based on peptide sequences, the cDNA that encodes the kinase was cloned. The cDNA clones encode a protein kinase that is homologous to the C. elegans protein PAR-1 (85% identity in the kinase domain and 42% identity overall). […] Importantly, the kinase activity that was precipitated using GST-DM increased as Dsh became progressively phosphorylated during development. The kinase activity was also present in Dsh immunoprecipitates.
as §2, with “C.” for “C. The glutathione beads were washed three times with lysis buffer and once with kinase buffer (50 mM Tris [pH7.6], 10 mM MgCl₂).”

B1: Drosophila PAR-1 (dPAR-1), the Dishevelled-associated kinase (enzyme)
chain: MSTAMRTTLQSVPEALPADSVSNGTASNVAAPAAPVSSATNAVPPLAAVSSTTATYATNSISTSSHSVKDQQQQQQQQQHDSANANIVSLPPTTTPVANTNTMMPIVTSSNSATSNSTAATPTPASGAAATGGVGSVSQGPATVSASAANTNHSHQHSHQHHHHVANNMTTDGARLSSNNSAVVASSAINHHHHHTPGSGVAPTVNKNVLSTHSAHPSAIKQRTSSAKGSPNMQMRSSAPMRWRATEEHIGKYKLIKTIGKGNFAKVKLAKHLPTGKEVAIKIIDKTQLNPGSLQKLFREVRIMKMLDHPNIVKLFQVIETEKTLYLIMEYASGGEVFDYLVLHGRMKEKEARVKFRQIVSAVQYCHQKRIIHRDLKAENLLLDSELNIKIADFGFSNEFTPGSKLDTFCGSPPYAAPELFQGKKYDGPEVDVWSLGVILYTLVSGSLPFDGSTLRELRERVLRGKYRIPFYMSTDCENLLRKFLVLNPAKRASLETIMGDKWMNMGFEEDELKPYIEPKADLADPKRIEALVAMGYNRSEIEASLSQVRYDDVFATYLLLGRKSTDPESDGSRSGSSLSLRNISGNDAGANAGSASVQSPTHRGVHRSISASSTKPSRRASSGAETLRVGPTNAAATVAAATGAVGAVNPSNNYNAAGSAADRASVGSNFKRQNTIDSATIKENTARLAAQNQRPASATQKMLTTADTTLNSPAKPRTATKYDPTNGNRTVSGTSGIIPRRSTTLYEKTSSTEKTNVIPAETKMASAVKSSRHFPRNVPSRSTFHSGQTRARNNTALEYSGTSGASGDSSHPGRMSFFSKLSSRFSKRPNQ
notes: Endogenous kinase from Drosophila embryo or Clone-8 cell lysates; In-gel bands of 110 kDa, 64 kDa and 130 kDa (minor) are said to be the kinase and its major fragment; also called Dsh-associated kinase; the kinase
binding result [1]: no binding
binding result [2]: no binding
binding result [3]: binds
